According to the DeepSol protein solubility set:

Test: soluble on expression in E. coli; label from the status in PepcDB or PDB records
For “MGSDKIHHHHHHMTTPLLEINDLVVSYQTAKGLVHAVNNVSLEVHPGQITAIVGESGSGKSTTAQAVIGLLADNAEVDSGRISFNGRSLVGLNAREWKNVRGTKIGLIPQDPNNSLNPVKTIGASVGEGLAIHKRGTAAERKKKVIELLERVGIDNPEVRYDQYPHELSGGMKQRALIAAAIALEPELIIADEPTSALDVTVQKIILDLLEDMQRELGMGILFITHDLAVAGDRADRIVVMQKGEVRESGYAASVLTDPQHEYSKKLLADAPSLTIGEIPTRVPAVDPEVAQAKGPLLVVDKFRKEHQRGKEGAFVAANDISFEVLPGTTHAIVGESGSGKTTLGRAIAMFNTPTSGSISVSGKDITNLSKAQQRELRQQIQLVYQNPYSSLDPRQTIGSTIAEPLRNFTKVSKQEADEKVAHYLELVALDPALATRRPRELSGGQRQRVAIARAMILEPELVVFDEAVSALDVTVQAQILRLLDDLQRELGLTYVFISHDLAVVREISDTVSVMSRGNQVELGKTAEVFNNPQTDFTRRLIDAIPGSRYRGGELNLGL”, the “soluble on expression in E. coli” value was “not soluble”.
In the case of “HLEGLGASVLDFTGFAQKFGTVLSYIRLGAKPDTLHQVRIDTGGADAVIGCDMVVSSAPKASAHYRNGTKVVLNRAEMPTGDLVLHRDAQLKIDTREAAIRAVVGTENVSGFDANQTAEQLLGDAVFANVMMLGYAWQQGLVPVSRSALAQAILLNGVAVEKNRLAFAAGRALAADPARLDVESASPE”, the “soluble on expression in E. coli” value is reported as “not soluble”.
For “MGHHHHHHGSLVPRGSRAYSFKVVLLGEGCVGKTSLVLRYCENKFNDKHITTLQASFLTKKLNIGGKRVNLAIWDTAGQERFHALGPIYYRDSNGAILVYDITDEDSFQKVKNWVKELRKMLGNEICLCIVGNKIDLEKERHVSIQEAESYAESVGAKHYHTSAKQNKGIEELFLDLCKRMIET”, the “soluble on expression in E. coli” value was “soluble”.
With “MSLENPTSIQIWHYYNGQQKMAFDKLVKEFNDTVGAEKGIIVEAFSQGNVVDLSEKVLDSANKKVGSEDVPNIFAAYSDTAYEMDKLGLLVDMDKYISKEELNEYIDEYVEEGRINSKDEFKLFPIAKSTEILMLNKTDWDKFAKATNSNINDIKTIEGLVETSKKYYEWTDSLTKEPNDGKAFFGRDALANYIIIGSKQLGVEIFSVKDGKVTLNIDEKVMKKLWDNFYVPYINGYFASYGKFRSDDAKTGDILALVGSSSGAAYFPDRVMLNDNESYNIETSVFQAPRFKGEGKYAVQQGAGMAVTKSTKEEEYASVEFLKWFTDKEPNIKFSIASGYLPVKKKTNDLDVIKEVMKKDNLSLSDKVEGSIASSIEQINSCNLYTNKAFDGGTKARQILEYSMLDKAKEDSNKINELVKSGTSKKDAVAQFNNDKNFKTWFEIFKAELENAIKEGHHHHHH” the “soluble on expression in E. coli” value was “soluble”.
With “PDAPRNLQLSLPREAEGVIVGHWAPPIHTHGLIREYIVEYSRSGSKMWASQRAASNFTEIKNLLVNTLYTVRVAAVTSRGIGNWSDSKSITTIKG” the “soluble on expression in E. coli” value was “soluble”.
In the case of “MAWASPDGHCTVEHSADSVHLWRFEHSVYDGFDTHWTATFTPEVPERLVAQFFTHLATTTPVERVFRDVPYLVQSLDAALITPVNRAAVNPHVHHAGAQLGRAVHRRLEHHHHHH”, the “soluble on expression in E. coli” value is reported as “not soluble”.
In the case of “MGSDKIHHHHHHVTTQLKETPPSDTSSINLEAEFQASNIKEVLDKLDRELIGLKPVKTRIRETAALLLVDRVRKKLDLTAGAPSLHMSFTGNPGTGKTTVAQRMSEILHRLGYVREGHLVSVTRDDLVGQYIGHTAPKTKEVIKKAMGGVLFIDEAYYLYKPENERDYGAESIEILLQVMENNRDDLVVILAGYKDRMDKFFRSNPGMRSRIAHHIDFPDYSPDELVAIAKLMLAAQNYRLSAEAEKAFGEYIRLRMKMEHFANARSVRNALDRARLRQANRLFEGAKKNLSRTDLITIEAEDIRASRVFVEGAVDLDGDEGASRELSEESV”, the “soluble on expression in E. coli” value is reported as “not soluble”.
In the case of “MERYNTMSGKKTESSDNIVLYPGLVKRLIEKGMEALKEKDAKKALTMFEQAEQYDAEPSQILFGKALCYVELGKLDDAVLLTDQMLRNDIGNYYDILQIHLSLLVQLGRYDEVVEMLDVVLAEDRLPAKHAESFYQLLHFSRQMVEDSPTYIKEPLSEELDLKETYDDINERDSLEQWHFLQQMRKHNNPADIRTLLSFVESESNDPALRSYALHMLTMHKVEKRVRIRKFDQEAEVIPVELNADEQQRFGNAVVEQLEARLAVENPSLFKMAEQLWWQFLYALYPFTPKPEQKDLWAGAVHVAVHESNGLPFDEEEIAGMYNCRVQQMLEKGEEIHFVETETFQGISGHSFRMAGDPLEHHHHHH”, the “soluble on expression in E. coli” value is reported as “soluble”.
With “MGSDKIHHHHHHMLLIDKLSNHENFTNTEQRIADYILKNITDIPPMNIDKLSKVTYTSHSAVVRLTKKLGFEGFKDFKVAISEAVYSQTTNMNSVDANFPFDSNDSVSTISKKVAELSVESIQRTFAQLDERLIEEAANTIAKSERIFLFAQGDSQIRARSFQNKLVKLNRFAILGEEYSDEDWTAANLTKKDCAIFISYGGRISQYERMLTHFSENKIPSVVLTGNQKSPLIRLAQTAIVTTQNEYDFLKISTFSSQITFEYLLDTIFSVIYAKEYQQNIINLKNKFNLIQRGTLSEGLAKEHDSK” the “soluble on expression in E. coli” value was “not soluble”.
In the case of “QRQPGHFCRSVLLAPVGAFLWQRSLPALMSPLPIRKTIHWLLANKPKLFAHKFSRHAWPDSHYRRMGAGYARCRAFIPYWDMVRADTALPLLEWVQDPIELVWGDQDKVLGIDQAAAWSAILARADLTISLKPGWGHYPWIDSPAEFAQWLES”, the “soluble on expression in E. coli” value is reported as “not soluble”.
For “GTQPTFGFTVNWKFSESTTVFTGQCFIDRNGKEVLKTMWLLRSSVNDIGDDWKATRVGINIFTRLRTQKEGGSGGSARKCSLTGKWTNDLGSNMTIGAVNSRGEFTGTYITAVTATSNEIKESPLHGTQNTINKSGGSTTVFTGQCFIDRNGKEVLKTMWLLRSSVNDIGDDWKATRVGINIFTRLRTQKEGGSGGSARKCSLTGKWTNDLGSNMTIGAVNSRGEFTGTYITAVTATSNEIKESPLHGTQNTINKRTQPTFGFTVNWKFSE”, the “soluble on expression in E. coli” value was “soluble”.
With “MGTSFRQYFKIVPALTEELKREAYRVRHSVYCEDLQFESSRSDGFEIDEYDAHSLHLLIRSINNDTFIGCTRIIRPSSNSNDRRLPFEKTCAQTLDRSIIDPSRLPADKIGEVSRLAVIAAFRRRKGEKNHPINISEEDFSTGPMMRFPYIPLSLYIGTIELARIHDIRVLFMLTEERLASHFSRLGAQLEPIGAPVEHRGLRFPSMVEINSIISNMRPIFRPLYQAIAEDIKAELEKKNH” the “soluble on expression in E. coli” value was “not soluble”.
With “MTTRLEWAKASPDAYAAMLGLEKALAKAGLERPLIELVYLRTSQINGCAYCVNMHANDARKAGETEQRLQALCVWQETPYFTPRERAALAWTEQLARLSQGALPHGLLDELREHFDDKEIAELTLAVSAINAWNRFGVGMGMQPE” the “soluble on expression in E. coli” value was “soluble”.
For “VVTRQLGRAPRGVLAIAYRCPNGEPGVVKTAPRLPDGTPFPTLYYLTHPVLTAAASRLETTGLMREMNRRLGQDAELAAAYRRAHESYLSERDALEPLGTTVSAGGMPDRVKCLHVLIAHSLAKGPGLNPFGDEALALLAAEPRTAATLVAGQWR”, the “soluble on expression in E. coli” value was “soluble”.
In the case of “MGSDKIHHHHHHMKQEFLHIASSLWATVAAQISRHTGQTFAPESLTPIGGGCINQTFCIRDHERQYFVKLNKAGNLAMFESEAAGLGEILDSASLRVPQPLCCGSHHDDAWLVLEFIDLQNRGNAAALGIGLANMHRHTAETFGWIRDNTIGSTPQRNATASDWISFWRQHRLGYQLNLARKNGHTGSLQSLGERLLSEFQHFFTDTLPLPSLLHGDLWGGNYAFDQDGQPVIFDPAVYYGDREADLAMTELFGGFPPDFQAAYRDTWPVETGYTTRKQLYNLYHILNHLNLFGPQYLSQAEITMKKLLAELY”, the “soluble on expression in E. coli” value is reported as “not soluble”.
In the case of “NECVSKGFGCLPQSDCPQEARLSYGGCSTVCCDLSKLTGCKGKGGECNPLDRQCKELQAESASCGKGQKCCVWLH”, the “soluble on expression in E. coli” value is reported as “soluble”.
With “MFIPVIMAGGSGSRLWPLSRSAFPKQFLSLDSSSQHTMLQATIERLQGLPIAEPIVISNEDHRFIVAEQIRRYGKKSRIILEPAGRNTAPAIALAAFTAIEQEDDPVLLVLAADHFVKNKSAFQAAISQAAQQAEAGKLATFGIVPTTPETGYGYIHRGEEVTQGTYEINSFVEKPQLNIAEQYLASGEYYWNSGCFMFKASVFLNELKQHSPEIYRQCELAMQGLSHDYDFIRVGVEEFLKCPDDSIDYAVMEHTKLGVVVSMDAGWSDVGSWSALWEVSDKDADGNVCQGDAILSGTSNCYIYAPNKLVAAVGLKDIVVVETKDAVLVADKNQVQEVKKIVEHLKAENRAEYREHRERYRPWGKSDAIDKGERYKVNRITVEPGKKQSLQMHYHRAEHWVVVSGTAKVTCEGNVKVITENQSLYIPIGTNHMIENPGKIPLELIEIQSGSYLNEDDVVRFEDK” the “soluble on expression in E. coli” value was “not soluble”.
In the case of “MSTGVKANDVKTKTKGADLVVDCLIKQGVTHVFGIPGAKIDSVFDVLQERGPELIVCRHEQNAAFMAAAIGRLTGKPGVCLVTSGPGTSNLATGLVTANAESDPVVALAGAVPRTDRLKRTHQSMDNAALFEPITKYSVEVEHPDNVPEALSNAFRSATSTNPGATLVSLPQDVMTAETTVESIGALSKPQLGIAPTHDITYVVEKIKAAKLPVILLGMRASTNEVTKAVRALIADTELPVVETYQAAGAISRELEDHFFGRVGLFRNQPGDILLEEADLVISIGYDPIEYDPKFWNKLGDRTIIHLDDHQADIDHDYQPERELIGDIALTVNSIAERLPKLVLSTKSEAVLERLRAKLSEQAEVPNRDSEGVTHPLQVIRTLRSLISDDTTVTCDIGSHSIWMARCFRSYEPRRLLFSNGMQTLGVALPWAIAATLVEPGKKVVSVSGDGGFLFSAMELETAVRLNSPIVHLVWRDGTYDMVAFQQMMKYGRTSATEFGDVDLVKYAESFGATGLRVNTPDELEGVLKSALAADGPVIIDIPIDYRDNIKLSEKLLPNQLN”, the “soluble on expression in E. coli” value is reported as “not soluble”.
With “GPGSMTIDAVSPLFADISREYGAAFDAAIARNVADALAEDVGSGDQTGRLVPDGAPRRARVIVREDAVLCGVPWFDAVVRAVDPSIEVDWRHREGDRMSADSTVCELRGPARALLTAERNALNFLQLLSGVASATRQYVDRIADTRARILDTRKTLPGLRLAQKYAVRVGGGANQRLALYAGILIKENHIAAAGGVGEALDAAFALNAEVPVQIEVETLDQLRTALAHGARSVLLDNFTLDMMRDAVRVTEGRAVLEVSGGVNFDTVRAIAETGVDRISIGALTKDVRATDYSMRIVE” the “soluble on expression in E. coli” value was “soluble”.
With “MKIKVISRNPNTYQRETTDKRNKIVRNFNTPADPFRSQVEYTRALNATKLERVFAKPFVASLDGHVDGVQVLAKHPNRPSTVFSGARDGQVKIWNLASRECQATLDAHRGLVNDISIDNNNGENFVTVGQDNQLKYWKIEGQQKTPAHSIAMDGIVYGVSHLSFSSDFVTCGEDISVWKPYRETPLRSYNLGTDTIHTCRANPVEENVIVGARSDRSIYVLDTRQDVPLKKVTMKMRPNKISWNPMEAYNFTVASEDYSLYTFDMRYMEHPVQSHQGFTSAVLDVDYSPTGQEFVAAGYDRSIRLFKARDMTSRDVYYTKRMASVLSVLWSADSKFVLSGSNEMNIRVWKANAAEKLGPLTKREKQAFAYNEKLRDTYKNHPEVRRIAKHRNVPRHIFTAAKEHKLIRDARGRRDFRRAKAAGLDEEESYLPQTQKIMVGDAEM” the “soluble on expression in E. coli” value was “not soluble”.
For “MNKRVQAFLAKMQEKELDGIIINNLKNVYYLTGFWGSNGTVFISRDRQVLVTDSRYIIAAKQETSGFEIVADRDELAVIAGIVKDMGLTRIGFEDEISVSYYHRMQAAFAGLNLLPQTQFVEGLRMIK”, the “soluble on expression in E. coli” value was “not soluble”.
With “MGSDKIHHHHHHMNRLIGEKMNDVLSKVTDKEYLKQIEDVIKFHGHLSGGAFIGIQMYNIAKKVLDIKDTDRVYANCETRNCMPDAFQVLGNCTTGNKRLSIKDYDIMAVTVNKIIPENEVGTGVRIVFDHKKAEKYPALYNWFMNIKKVPHEEVISDLIDAGDSIYSWKSVEIHVSEKKPKFSAVCGLCGESFIKKGTDDENICPNCAEKSAE” the “soluble on expression in E. coli” value was “not soluble”.
